Test results reported in article PMC12623338.

Tested on: T1, CrsR (response regulator of CrsRK) (Actinosynnema pretiosum X47), ORF:a04a2703
T1 sequence: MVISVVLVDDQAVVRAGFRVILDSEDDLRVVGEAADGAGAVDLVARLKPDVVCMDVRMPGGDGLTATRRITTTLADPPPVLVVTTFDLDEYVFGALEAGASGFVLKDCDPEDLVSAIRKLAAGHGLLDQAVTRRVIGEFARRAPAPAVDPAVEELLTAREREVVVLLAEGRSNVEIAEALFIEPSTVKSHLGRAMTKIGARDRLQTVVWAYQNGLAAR
Assay: EMSA
Settings: EMSA: 50-100 fmol probe, 0.5-1 ug CrsR, binding buffer with poly(dI-dC) (salt and pH not stated), 20 min at room temperature, 8% native PAGE; protein dialyzed …

Row | Sequence | binding
1 | ACTCGGTCGCCGTGGTCATGGCTACAGCCAACAACCTCGACCATGGTGGAGGTCAACAGTAAGGTTGAGCTGGTGAGCAAGTTGCCGGAGATGTTGACCATCGGCCAGGTCGCCGAGCGCAGCGGGGTGCCCCACACGGCGCTGCGGTTCTACGAGGAGCGCGGGCTGATCGCCTCGGAGCGCACGGCGGGCAACCAGCGCCGCTACCCCAGGCACGTGCTGCGCAGGCTCGCGTTCATCCGCACCGCGCAGCGGGTCGGGCTGAGCCTGGAGGAGGTGCG (double strand) [asm13 promoter probe (asm13-15, asm10-12)] | no binding
2 | CCGGTTCCCGTTCATCCAATTGTGCGCACGACCGCGCCGCCGTGCCCGCGTGCTGCGGTGATGGCCTGGGAACAGGGGGGATTAGGGGGAGGTCAAGGGGGTTGGTCGGGATCTGCGGAATCGGTAGCGTCGAATTCCGAAAGCCGGCCGCGGTGAATTCCCCCGCGCCATTTCCGCGAACGACGGGACAGGGGCTCATGGGCA (double strand) [asm43 promoter probe (asm43-44)] | binds
3 | CGGACAGACCGATCCCCGAGTCGTGCGGGCCCGAGCCGTGGACGCGCGGGCCGTGGACGCGCGAGCCGCGACCGCCGCCCCCACGACCGCCGCCCCCACGACCGCCGCTCCGGCGACCACTGCTCCGGCGACCGCCGCTCCGGCGACCGCCGCTCCGGCGACCGCCGCTCCGGCGACCGCCGCCCCCACGACCACTCCTCCGCGCCCCCGCGTCCCCCAGGCCCCCGCGCCCCACCGGCACGTTCCGGGCGCGACCTACGACCGGGCCGTGCTGTTCGACCTCGACGGG (double strand) [asm45 promoter probe (asm45-47)] | binds
4 | CGGTCCACCAGCCGCATCCCTCGCCTCCCCCGCGTCCGCCCCGCCGACCTTCAGGCATGTCAACAGCCCTGTCAGTCGTCTTGTCCACGCCCCGACCACCGCACCCCCACTGGCCGCCCACCCGCGCCGGGAAAACCACGAAGTCCCCTGCCGCGCGGGCGTCCCAGGTCGGACACTCCTGAGCGCACCCCCGCACCCGTTCCAGGAGGC (double strand) [asm7 promoter probe] | no binding
5 | GGAGGGACGAGCGGAGACCGGGTCGCGGGACTCCACTTCGGACGGTAGGGCACGCGGGCGCCGTTGGCAGTTGCCGCTTCCACGGCTGGCGAACAAAGCGGTAATCCCTTGCGCCACAGGCGATTGACACCCCGGCGAGGCCCTGGTTTCACTGCTGTCCGCACGTCACCGGCGCGAGGAGGCCCCCGTGAAGTACATGCTGCTCATCCAC (double strand) [asm21 promoter probe] | binds
6 | GGTCGGGCACCAGGAACACCTCGCAGAGCGCAAAGACGTGAGTGGACGGTGCGATTGTGCTGACGGCCTGACCCCGGTGGTGGGGACCGCGGCGAACCGGCTGAACGCAGGGGGGACCTAGGGGGGCGTCAGGGGGTTGGGGGGCTCTTCCGGCCGCCGTTAGCTTCGGGCCGCGCACCGGCCCCCGGAGAGCGCGCCGGACCGAGAGCAGAGACGAGGGCGACCGACCGTGCACCTGAAGGCCCCGCAGAAGCT (double strand) [asm24 promoter probe] | no binding
7 | TGACGGCGTCGGGTGAGGCCGCCGCTGGCCCTGGGACGGCGCTGCGCGCCCCCTCGGACCCACCGGAGCCGCCACCACCGCTTGTCCCCTTCCACCGGGTGGGGCGCGGTCGGTAATCCGGCGGCAATTCCTTCCCCCGTCCGGGCTAGCCAGGCCCGTGCGCCCGCGTCGCGCACGGGCCAAGGTGGGTGGCTGCGCGGATGACCGGGCCCCCGAACCGGATGTGGGAGAGATGCTGCGAAGCGAC (double strand) [asmA promoter probe] | no binding
